The values that follow come from article PMC10613254 (2023).

The assay concerns the target bovine brain Arp2/3 complex (bovine, UniProt P61157 1-418; A7MB62 1-394; Q58CQ2 1-372; Q3MHR7 1-300; Q3T035 1-178; Q148J6 …). Kind of assay: ITC.

B1: Cort_(1-33) (domain or fragment)
chain: MWKASAGHAVSITQDDGGADDWETDPDFVNDVS
B1 showed a Kd of 5.4 µM. This lies in the single-digit micromolar range.

B2: Cort_(1-76), cortactin N-terminal acidic domain (NTA, residues 1-76) (domain or fragment)
chain: MWKASAGHAVSITQDDGGADDWETDPDFVNDVSEKEQRWGAKTVQGSGHQEHINIHKLRENVFQEHQTLKEKELET
As to B2, binding was characterised by a dissociation constant (Kd) of 4.5 µM.

B3: Cort_(18-76) (domain or fragment)
chain: GADDWETDPDFVNDVSEKEQRWGAKTVQGSGHQEHINIHKLRENVFQEHQTLKEKELET
The molecule B3 registered a Kd of 2.2 µM.
